Key:
[1] = molecular target: T1, human Siglec-3 on cells (moDC, PBMC of CHB patients) (human), P20138; assay: co-IP (IP: Siglec-3) from moDC incubated 30 mins with 3x10^8 copies/mL hHBV; Western blot, densitometry, normalized to the first lane [F]; settings: remark: other sources report otherwise
[2] = molecular target: T1, human Siglec-3 on cells (moDC, PBMC of …); assay: co-IP (IP: Siglec-3) from moDC incubated with hHBV for 15 min; Western blot, densitometry, normalized to the starting point [E]
[3] = molecular target: T1, human Siglec-3 on cells (moDC, PBMC of …); assay: co-IP (IP: Siglec-3) from moDC incubated 30 mins with 0 copies/mL hHBV; Western blot, densitometry, normalized to the first lane [F]; settings: remark: other sources report otherwise
[4] = molecular target: T1, human Siglec-3 on cells (moDC, PBMC of …); assay: co-IP (IP: Siglec-3) from moDC treated with anti-Siglec-3 mAb 2B9; Western blot, densitometry, fold of Mock [A]; settings: remark: other sources report otherwise
[5] = molecular target: T1, human Siglec-3 on cells (moDC, PBMC of …); assay: co-IP (IP: Siglec-3) from moDC incubated 30 mins with 10^8 copies/mL hHBV; Western blot, densitometry, normalized to the first lane [F]; settings: remark: other sources report otherwise
[6] = molecular target: T1, human Siglec-3 on cells (moDC, PBMC of …); assay: co-IP (IP: Siglec-3) from moDC incubated with hHBV for 0 min; Western blot, densitometry, normalized to the starting point [E]
[7] = molecular target: T1, human Siglec-3 on cells (moDC, PBMC of …); assay: co-IP (IP: Siglec-3) from moDC, HBV -, 10C8 -; Western blot, densitometry, normalized to the untreated control [E]; settings: remark: other sources report otherwise
[8] = molecular target: T1, human Siglec-3 on cells (moDC, PBMC of …); assay: co-IP (IP: Siglec-3) from moDC treated with HBV (hHBV); Western blot, densitometry, fold of Mock [A]; settings: remark: other sources report otherwise
[9] = molecular target: T1, human Siglec-3 on cells (moDC, PBMC of …); assay: co-IP (IP: Siglec-3) from moDC, lane Mock; Western blot, densitometry [A]; settings: remark: other sources report otherwise
[10] = molecular target: T1, human Siglec-3 on cells (moDC, PBMC of …); assay: co-IP (IP: Siglec-3) from moDC incubated 30 mins with 10^9 copies/mL hHBV; Western blot, densitometry, normalized to the first lane [F]; settings: remark: other sources report otherwise
[11] = molecular target: T1, human Siglec-3 on cells (moDC, PBMC of …); assay: co-IP (IP: Siglec-3) from moDC incubated with hHBV for 60 min; Western blot, densitometry, normalized to the starting point [E]
[12] = molecular target: T1, human Siglec-3 on cells (moDC, PBMC of …); assay: co-IP (IP: Siglec-3) from moDC, HBV -, 10C8 +; Western blot, densitometry, normalized to the untreated control [E]; settings: remark: other sources report otherwise
[13] = molecular target: T1, human Siglec-3 on cells (moDC, PBMC of …); assay: co-IP (IP: Siglec-3) from moDC incubated with hHBV for 30 min; Western blot, densitometry, normalized to the starting point [E]
[14] = molecular target: T1, human Siglec-3 on cells (moDC, PBMC of …); assay: co-IP (IP: Siglec-3) from moDC, HBV +, 10C8 -; Western blot, densitometry, normalized to the untreated control [E]; settings: remark: other sources report otherwise
[15] = molecular target: T1, human Siglec-3 on cells (moDC, PBMC of …); assay: co-IP (IP: Siglec-3) from moDC, HBV +, 10C8 + (10C8 given 1 hour before HBV); Western blot, densitometry, normalized to the untreated control [E]; settings: remark: other sources report otherwise
[16] = molecular target: T1, human Siglec-3 on cells (moDC, PBMC of …); assay: co-IP (IP: Siglec-3) from moDC treated with anti-Siglec-3 mAb 10C8; Western blot, densitometry, fold of Mock [A]; settings: remark: other sources report otherwise

T1 sequence (P20138 18-364): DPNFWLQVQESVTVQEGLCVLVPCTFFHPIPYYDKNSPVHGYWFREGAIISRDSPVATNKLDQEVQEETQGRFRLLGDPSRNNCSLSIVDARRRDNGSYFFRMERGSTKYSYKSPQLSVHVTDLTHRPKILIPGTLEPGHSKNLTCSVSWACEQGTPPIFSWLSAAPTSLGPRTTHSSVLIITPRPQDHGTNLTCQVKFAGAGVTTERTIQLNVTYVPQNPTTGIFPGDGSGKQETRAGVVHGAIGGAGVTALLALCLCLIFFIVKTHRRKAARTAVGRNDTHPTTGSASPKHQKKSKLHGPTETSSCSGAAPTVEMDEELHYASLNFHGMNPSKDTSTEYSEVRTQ

B1: SHP-2, Q06124 2-593 (protein, human, UniProt Q06124 2-593, looked up)
chain: TSRRWFHPNITGVEAENLLLTRGVDGSFLARPSKSNPGDFTLSVRRNGAVTHIKIQNTGDYYDLYGGEKFATLAELVQYYMEHHGQLKEKNGDVIELKYPLNCADPTSERWFHGHLSGKEAEKLLTEKGKHGSFLVRESQSHPGDFVLSVRTGDDKGESNDGKSKVTHVMIRCQELKYDVGGGERFDSLTDLVEHYKKNPMVETLGTVLQLKQPLNTTRINAAEIESRVRELSKLAETTDKVKQGFWEEFETLQQQECKLLYSRKEGQRQENKNKNRYKNILPFDHTRVVLHDGDPNEPVSDYINANIIMPEFETKCNNSKPKKSYIATQGCLQNTVNDFWRMVFQENSRVIVMTTKEVERGKSKCVKYWPDEYALKEYGVMRVRNVKESAAHDYTLRELKLSKVGQGNTERTVWQYHFRTWPDHGVPSDPGGVLDFLEEVHHKQESIMDAGPVVVHCSAGIGRTGTFIVIDILIDIIREKGVDCDIDVPKTIQMVRSQRSGMVQTEAQYRFIYMAVQHYIETLQRRIEEEQKSKRKGHEYTNIKYSLADQTSGDQSPLPPCTPTPPCAEMREDSARVYENVGLMQQQKSFR
With B1 the fold change of SHP-2 co-precipitated with Siglec-3 [1] was 1.2 fold, the fold change of SHP-2 co-precipitated with Siglec-3 [2] was 1.5 fold and the fold change of SHP-2 co-precipitated with Siglec-3 [3] was 1 fold. It also gave a fold change of SHP-2 co-precipitated with Siglec-3 [4] of 4.3 fold, a fold change of SHP-2 co-precipitated with Siglec-3 [5] of 1.1 fold and a fold change of SHP-2 co-precipitated with Siglec-3 [6] of 1 fold. For the same binder, the fold change of SHP-2 co-precipitated with Siglec-3 [7] was 1 fold, the fold change of SHP-2 co-precipitated with Siglec-3 [8] was 1.2 fold and the fold change of SHP-2 co-precipitated with Siglec-3 [9] was 1 fold. It also gave a fold change of SHP-2 co-precipitated with Siglec-3 [10] of 1.6 fold, a fold change of SHP-2 co-precipitated with Siglec-3 [11] of 1.3 fold and a fold change of SHP-2 co-precipitated with Siglec-3 [12] of 1.2 fold. It also gave a fold change of SHP-2 co-precipitated with Siglec-3 [13] of 2.4 fold, a fold change of SHP-2 co-precipitated with Siglec-3 [14] of 2.7 fold and a fold change of SHP-2 co-precipitated with Siglec-3 [15] of 1.6 fold. The fold change of SHP-2 co-precipitated with Siglec-3 [16] was 1.3 fold.

Reference: patent publication US20210292413A1
